“Also recorded” adds a separate entry of the source.
Tests used:
ATM transcript = assay: qPCR of ATM transcript in OVCAR8 cells; assay type: cell-based, human; conditions: OVCAR8, qPCR vs non-silencing control, baseline without cisplatin
Experimental: Total RNA was extracted from cell pellets using the mirVana miRNA extraction kit (Ambion, Austin, Tex.) according to the manufacturer's instructions. Levels of microRNA expression were examined using Mature MicroRNA Taqman assays (Applied Biosystems, Foster City, Calif.) using U6 as a control. For all gene expression assays, cDNA was prepared using qScript cDNA supermix (Quanta Biosciences, Gaithersburg, Md.). TaqMan gene expression assays (Applied Biosystems) were used to measure expression of specific target genes according to the manufacturer's instructions. All reactions were performed in triplicate using OneStepPlus real time PCR system (Applied Biosystems). All qPCR results are reported using the ΔΔCT method (17).

UPSC Ark1 cells = assay: Cisplatin dose response in uterine cancer cells stably transfected with lentiviral vector; assay type: cell-based; conditions: UPSC Ark1 cells expressing miR-520h vs non-targeting miRNA control
Experimental: UPSC Ark1 cells stably transfected with lentiviral vector driving the expression of either miR-520h or a non-targeting miRNA control were incubated with increasing concentrations of cisplatin.

OVCAR8 xenografts [1] = assay: Survival and tumor response of xenografted mice treated with cisplatin; assay type: in vivo
Experimental: (§1) Permission to perform animal experiments was obtained from the Institutional Animal Care and Use Committee (IACUC) for Baylor College of Medicine. Eight-week female athymic (Foxn1^nu/nu) mice were purchased from the National Cancer Institute-Charles River and maintained on a standard diet ad lib. Each animal was inoculated intraperitoneally with 2.5×10^6 cells stably transfected with vector driving miR-520h, a non-targeting miRNA control or empty vector. Expression of miR-520h was measured in cell lines using Taqman assays immediately prior to inoculation. Tumor xenografts were followed weekly for tumor progression or regression using the Image Station In-Vivo FX system (Kodak Molecular Imaging Systems, New Haven, Conn.) using endogenous RFP encoded by the pLemiR vector as a tag. At each time point, mice were anesthetized with isoflurane and placed in an imaging chamber, after which, fluorescent intensity images with x-ray overlay were obtained and analyzed. At the completion of the study, mice were euthanized after sedation under isoflurane (Abbott Laboratories, North Chicago, Ill.). For experiments involving treatment, cisplatin was administered at 5 mg/kg to mice by tail vein injection weekly for 4 weeks, after which, 1.5 mg/kg was administered biweekly. Tumor volume and distribution for all animals in each experiment were documented and correlated with imaging results.
To determine whether expression of miR-520h impacted responses of ovarian cancer xenografts to systemically administered chemotherapy, the inventors inoculated Fox1nu/nu mice with 4×10^6 OVCAR8 cells stably expressing either miR-520h mimic, a non-targeting mimic control or empty vector. Once tumor implants were readily palpable, weekly administration of cisplatin equivalent to a dose of 5 mg/kg was initiated and given weekly for a total of 4 weeks. This course of treatment was specifically used to mimic the typical course experienced by women undergoing treatment for this illness. […] This observation is consistent with a sensitization of ovarian cancer cells to cisplatin by miR-520h mimic. Cisplatin was continued approximately biweekly at a reduced dose of 1.5 mg/kg until disease progression requiring euthanasia of animals by IACUC criteria. […] In contrast, median survival for animals xenografted with OVCAR8 cells stably transfected with empty vector or OVCAR8 cells stably expressing non-targeting microRNA control was 79 days and 90 days, respectively.

lin28A/B = assay: Stemness gene expression in media that induce spheroid formation; assay type: cell-based, human; conditions: OVCAR8 and SKOV3ip1
OVCAR8 xenografts [2] = assay: Intraperitoneal ovarian cancer xenograft growth and metastasis; assay type: in vivo, mice; conditions: for Total intraperitoneal tumor burden: between the three groups
Experimental: as §1
The in vitro observations indicate that miR520g/h and/or miR-520a alter the proliferations of established ovarian cancer cell lines and in some embodiments are reasonably expected to promote their growth and metastasis in vivo. The inventors utilized xenograft models to characterize this embodiment. Foxn1^nu/nu mice were implanted subcutaneously or intraperitoneally with 2.5 million cells stably transfected with miR-520g/h, non-silencing microRNA control or empty vector alone. […] This difference was documented not only when tumor burden was measured according to the number and size of RFP active tumors that met imaging thresholds, but could also directly measured at necropsy (FIG. 5F). […]

OVCAR8 cells = assay: Spheroid formation; assay type: cell-based, human; conditions: cells stably expressing mimics
phopho-CHK2 (T68) = assay: Western blot of phospho-CHK2 in OVCAR8 cells; assay type: cell-based, human; conditions: OVCAR8 with cisplatin
Experimental: Whole cell lysates equivalent to 30 μg of protein were resolved on 4-12% gradient SDS-PAGE. Resolved proteins were transferred onto PVDF membranes using the iBlot system (Invitrogen). Rabbit polyclonal and/or mouse monoclonal antibodies specifically recognizing ATM, phospo-ATM (Ser1981) CHK1 phospho-CHK1 (Ser216), p21, phospo-CHK2 ([…]), BCL2, XIAP, CDC25A were obtained from Cell Signaling Technologies (Danvers, Mass.). A rabbit polyclonal antibody recognizing FANCD2 was also purchased from Abcam (Cambridge, Mass.). Protein expression was visualized using species-specific, horseradish peroxidase-conjugated secondary antibody (Cell Signaling) and ECL Plus chemiluminescent substrate (Amersham, Buckinghamshire, UK).

B1: hsa-mir-520h MI0003175 (nucleic acid, listed as Homo sapiens)
chain: UCCCAUGCUGUGACCCUCUAGAGGAAGCACUUUCUGUUUGUUGUCUGAGAAAAAACAAAGUGCUUCCCUUUAGAGUUACUGUUUGGGA
modifications: expressed or natural sequence
notes: synthetic mimic or stably expressed from pLemiR vector; written miR-520g/h interchangeably
ATM transcript level (ATM transcript): paradoxically higher | ATM transcript level (ATM transcript; listed as miR-520g/h): actually higher | Reduction of IC50 for cisplatin (UPSC Ark1 cells): more than 90% | Mean survival (OVCAR8 xenografts [1]; 4×10^6 OVCAR8 cells, cisplatin 5 mg/kg weekly 4 weeks then 1.5 mg/kg biweekly): 114 days | Mean survival (OVCAR8 xenografts [1]; biweekly maintenance IV regimen of 5 mg/m^2 cisplatin): 130 days | Xenograft response to cisplatin regimen (OVCAR8 xenografts [1]; cisplatin 5 mg/kg weekly for 4 weeks): nearly complete elimination of disease | Increase in survival vs empty vector control (OVCAR8 xenografts [1]; cisplatin-treated xenografted animals): ~44% | Median survival (OVCAR8 xenografts [1]; mice xenografted with 2.5×10^6 OVCAR8 cells expressing the mimic, cisplatin doses, controls 90 and 79 days): 113 days | Implant size at necropsy (OVCAR8 xenografts [1]; vs non-targeting mimic control or empty vector): significantly smaller | Spheroid-media-induced expression of stemness genes (lin28A/B) (lin28A/B): eliminates increased expression | Number and size of intraperitoneal implants (OVCAR8 xenografts [2]; OVCAR8 cells stably expressing the microRNA, intraperitoneal, no cisplatin, vs non-silencing control or empty vector, listed as miR-520g/h): larger number of smaller xenografts; also recorded: large number of smaller implants | Total intraperitoneal tumor burden (OVCAR8 xenografts [2]): did not differ significantly | Total intraperitoneal tumor burden (OVCAR8 xenografts [2]; listed as miR-520g/h): did not differ | Capacity to form spheroids (OVCAR8 cells): decreased capacity to form spheroids | phospho-CHK2 (T68) level (phopho-CHK2 (T68)): increased levels

Reference: patent US9758785B2, “miR-520 microRNAs sensitize cancers to platinum-based therapy” (BAYLOR COLLEGE OF MEDICINE, priority 2012, dated 2017)
